Measurements from the supplement of paper PMC10598134.
± gives the standard deviation.

Assay: collision cross section of modified peptide (TIMS, N2, iRT-aligned); higher = larger / more extended gas-phase ion
In short: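 Synthetic peptide pools (~100 fmol/µL in 2% acetonitrile/0.1% formic acid, iRT standard spiked 1:40) were separated on a 120-min nanoflow C18 gradient at 60 °C. They were analysed on a timsTOF Pro/HT (dda-PASEF, nitrogen, ~2.4 mbar) and identified with MaxQuant. 1/K0 was calibrated with three reference ions and aligned run-wise to the median iRT peptide deviation. Collision cross section came from the Mason-Schamp equation, averaging 1–3 technical replicates of the most abundant feature per charge state.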

[1] = charge state: 2, modification: Nitro (Y)
[2] = charge state: 2, modification: Glutarylation
[3] = charge state: 3, modification: Glutarylation
[4] = charge state: 2, modification: hydroxyisobutyryl
[5] = charge state: 2, modification: Methyl (K)
[6] = charge state: 3, modification: Methyl (K)
[7] = charge state: 2, modification: Acetyl (K)
[8] = charge state: 2, modification: Malonyl
[9] = charge state: 2, modification: Succinyl
[10] = charge state: 3, modification: Succinyl
[11] = charge state: 3, modification: Formyl
[12] = charge state: 2, modification: Hydroxyproline
[13] = charge state: 3, modification: Nitro (Y)

DLATVYVDVLK [_DLATVY(Nitro (Y))VDVLK_]
collision cross section [1]: 387.27 ± 0.74 Å²

ASDTSSETVFGKR [_ASDTSSETVFGK(Dimethyl (K))R_]
collision cross section (charge state: 2, modification: Dimethyl (K)): 409.3 ± 1.1 Å²
collision cross section (charge state: 3, modification: Dimethyl (K)): 469.84 ± 1.6 Å²

ATVASSTQKFQDLGVK [_ATVASSTQK(Gluratylation)FQDLGVK_]
collision cross section [2]: 449.16 ± 1.1 Å²
collision cross section [3]: 497.84 ± 1.7 Å²

PSVGSQSNQAGQGKR [_PSVGSQSNQAGQGK(Gluratylation)R_]
collision cross section [2]: 412.64 ± 1.7 Å²
collision cross section [3]: 479.06 ± 9.1 Å²

GADFLVTEVENGGSLGSKK [_GADFLVTEVENGGSLGSK(hydroxyisobutyryl)K_]
collision cross section [4]: 478.5 ± 1.3 Å²
collision cross section (charge state: 3, modification: hydroxyisobutyryl): 553.89 Å²

IPAASAAAMNLASAR [_IPAAS(HexNAc (ST))AAAMNLASAR_]
collision cross section (charge state: 3, modification: HexNAc (ST)): 504.78 ± 1.3 Å²

SGNLTEDDKHNNAK [_SGNLTEDDK(Methyl (K))HNNAK_]
collision cross section [5]: 417.49 ± 1.1 Å²
collision cross section [6]: 487.35 ± 2.7 Å²

TLDEILQEKK [_TLDEILQEK(Acetyl (K))K_]
collision cross section [7]: 377 ± 0.3 Å²
collision cross section (charge state: 3, modification: Acetyl (K)): 448.44 Å²

LQLEIDQKK [_LQLEIDQK(Acetyl (K))K_]
collision cross section [7]: 364.82 ± 0.76 Å²

FLQEFYQDDELGKK [_FLQEFYQDDELGK(Malonyl)K_]
collision cross section [8]: 451.48 ± 0.99 Å²

GFCFITYTDEEPVKK [_GFCFITYTDEEPVK(Malonyl)K_]
collision cross section [8]: 452.98 ± 0.65 Å²

ALASIDSKLNQAK [_ALASIDSK(Succinyl)LNQAK_]
collision cross section [9]: 408.18 ± 0.54 Å²
collision cross section [10]: 477.06 Å²

VFSIISSEKELK [_VFSIISSEK(Crotonyl)ELK_]
collision cross section (charge state: 2, modification: Crotonyl): 412.67 ± 0.34 Å²

DSINFLDHINGKK [_DSINFLDHINGK(Formyl)K_]
collision cross section [11]: 468.04 Å²

SDDESSQKDIK [_SDDESSQK(Gluratylation)DIK_]
collision cross section [2]: 382.21 ± 1.1 Å²

INNFSADIKDSK [_INNFSADIK(Succinyl)DSK_]
collision cross section [9]: 402.07 ± 0.25 Å²
collision cross section [10]: 465.51 Å²

HTLLRAPAPELLPANVAGR [_HTLLR(Methyl (R))APAPELLPANVAGR_]
collision cross section (charge state: 3, modification: Methyl (R)): 530.63 ± 1.2 Å²

VDVEVPDVSLEGPEGKLK [_VDVEVPDVSLEGPEGK(Gluratylation)LK_]
collision cross section [2]: 465.13 ± 4.5 Å²
collision cross section [3]: 502.24 Å²

GNPGVGTQGPR [_GNP(Hydroxyproline)GVGTQGPR_]
collision cross section [12]: 327.91 ± 0.79 Å²

YEEIVKEVSTYIK [_YEEIVK(Succinyl)EVSTYIK_]
collision cross section [9]: 438.13 ± 0.83 Å²

ASAISIKLGSSK [_ASAISIK(hydroxyisobutyryl)LGSSK_]
collision cross section [4]: 374.73 ± 0.8 Å²

VHATSTYR [_VHATSTY(Nitro (Y))R_]
collision cross section [1]: 330 ± 0.55 Å²
collision cross section [13]: 400.02 ± 0.83 Å²

DSINFLDHINGKK [_DSINFLDHINGK(Crotonyl)K_]
collision cross section (charge state: 3, modification: Crotonyl): 467.81 Å²

ALASIDSKLNQAK [_ALASIDSK(GlyGly (K))LNQAK_]
collision cross section (charge state: 2, modification: GlyGly (K)): 417.48 ± 0.98 Å²
collision cross section (charge state: 3, modification: GlyGly (K)): 469.2 ± 1.3 Å²

LDEKENLSAK [_LDEK(Butyryl)ENLSAK_]
collision cross section (charge state: 2, modification: Butyryl): 370.93 ± 0.84 Å²

KFGVLSDNFK [_K(Gluratylation)FGVLSDNFK_]
collision cross section [2]: 380.33 ± 0.73 Å²

SKHLQEQLNELK [_SK(Formyl)HLQEQLNELK_]
collision cross section (charge state: 2, modification: Formyl): 412.77 ± 0.19 Å²
collision cross section [11]: 477.47 ± 2.1 Å²

GEVQVSDKER [_GEVQVSDK(Methyl (K))ER_]
collision cross section [5]: 360.9 ± 0.67 Å²
collision cross section [6]: 436.39 ± 5.2 Å²

GQKGEPGLPGHPGK [_GQKGEPGLP(Hydroxyproline)GHPGK_]
collision cross section [12]: 379.44 ± 1.1 Å²
collision cross section (charge state: 3, modification: Hydroxyproline): 420.23 ± 0.34 Å²

YIGTGHADTTK [_Y(Nitro (Y))IGTGHADTTK_]
collision cross section [1]: 358.04 ± 1.2 Å²
collision cross section [13]: 452.29 ± 0.83 Å²

TFGKAAGPSLSHTSGGTQSK [_TFGK(Succinyl)AAGPSLSHTSGGTQSK_]
collision cross section [9]: 476.24 Å²
collision cross section [10]: 513.01 ± 0.73 Å²

IYHPNVDK [_IY(Phospho (Y))HPNVDK_]
collision cross section (charge state: 2, modification: Phospho (Y)): 353.97 ± 0.065 Å²
collision cross section (charge state: 3, modification: Phospho (Y)): 437.48 Å²

FGSRGGPGGGFR [_FGSR(Citrullination (R))GGPGGGFR_]
collision cross section (charge state: 2, modification: Citrullination (R)): 349.6 ± 0.64 Å²

ITASLCDLKSR [_ITASLCDLK(Gluratylation)SR_]
collision cross section [2]: 391.61 ± 1.4 Å²
